# Test results taken from patent US20170266254A1 (AILERON THERAPEUTICS, published 2017).
# Bridges are numbered along the chain shown (N, C = ends). [ ]: non-standard residue; d: D form. R8 = C=CCCCCCC[C@@](C)(N)C(=O)O; S5 = C=CCCC[C@](C)(N)C(=O)O
# T1: C-terminally 6x Histidine-tagged Beta-Catenin (aa 134-668, 59 KD) (UniProt P35222 134-668)
# T1 construct: range 134-668; Armadillo repeat region
# T1 sequence: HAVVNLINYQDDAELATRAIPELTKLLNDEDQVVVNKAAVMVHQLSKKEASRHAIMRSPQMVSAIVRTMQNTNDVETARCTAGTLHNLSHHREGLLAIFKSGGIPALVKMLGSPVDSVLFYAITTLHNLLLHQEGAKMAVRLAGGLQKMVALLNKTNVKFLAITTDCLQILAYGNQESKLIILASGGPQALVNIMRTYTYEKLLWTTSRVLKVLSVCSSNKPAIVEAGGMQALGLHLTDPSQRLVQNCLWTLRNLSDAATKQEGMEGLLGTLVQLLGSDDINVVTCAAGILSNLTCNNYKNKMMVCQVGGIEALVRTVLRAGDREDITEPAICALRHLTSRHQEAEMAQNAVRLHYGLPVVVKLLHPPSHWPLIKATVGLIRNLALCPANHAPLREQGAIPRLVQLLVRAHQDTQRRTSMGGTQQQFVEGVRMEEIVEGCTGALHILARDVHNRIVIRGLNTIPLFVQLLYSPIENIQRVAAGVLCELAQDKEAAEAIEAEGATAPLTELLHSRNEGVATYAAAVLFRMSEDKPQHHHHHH
# Biological target: T1, C-terminally 6x Histidine-tagged …
# Experiment: competitive fluorescence polarization, FAM-labelled linear probe as competitor, His-tagged beta-catenin 134-668
# In short: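 FP competition in 25 mM Tris-HCl pH 7.5, 200 mM NaCl, 5 mM CHAPS, 2 mM DTT at room temperature. Competitor peptides at 40–0.7 μM 2× working range, constant DMSO. Probe (benchmark peptide with N-terminal FAM via β-Ala spacer) from 25 nM 10× stock. Read after 3 h in the dark, ex 485/em 528 nm.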
row,Binder,IC50 [µM]
1,"Ac-SA[S5]RNL[S5]DVKSSLV-NH2 (staple 3-7; SMILES CC(=O)N[C@@H](CO)C(=O)N[C@@H](C)C(=O)N[C@@]1(C)CCCC=CCCC[C@@](C)(C(=O)N[C@@H](CC(=O)O)C(=O)N[C@H](C(=O)N[C@@H](CCCCN)C(=O)N[C@@H](CO)C(=O)N[C@@H](CO)C(=O)N[C@@H](CC(C)C)C(=O)N[C@H](C(N)=O)C(C)C)C(C)C)NC(=O)[C@H](CC(C)C)NC(=O)[C@H](CC(N)=O)NC(=O)[C@H](CCCNC(=N)N)NC1=O, also called Ac-SA$RNL$DVKSSLV-NH2) [SP42]",≥ 100
2,"Ac-RNLA[S5]VKS[S5]LVNES-NH2 (staple 5-9; SMILES CC(=O)N[C@@H](CCCNC(=N)N)C(=O)N[C@@H](CC(N)=O)C(=O)N[C@@H](CC(C)C)C(=O)N[C@@H](C)C(=O)N[C@@]1(C)CCCC=CCCC[C@@](C)(C(=O)N[C@@H](CC(C)C)C(=O)N[C@H](C(=O)N[C@@H](CC(N)=O)C(=O)N[C@@H](CCC(=O)O)C(=O)N[C@@H](CO)C(N)=O)C(C)C)NC(=O)[C@H](CO)NC(=O)[C@H](CCCCN)NC(=O)[C@H](C(C)C)NC1=O, also called Ac-RNLA$VKS$LVNES-NH2) [SP3]",≥ 100
3,"Ac-NL[S5]NVK[S5]SLVNQS-NH2 (staple 3-7; SMILES CC(=O)N[C@@H](CC(N)=O)C(=O)N[C@@H](CC(C)C)C(=O)N[C@@]1(C)CCCC=CCCC[C@@](C)(C(=O)N[C@@H](CO)C(=O)N[C@@H](CC(C)C)C(=O)N[C@H](C(=O)N[C@@H](CC(N)=O)C(=O)N[C@@H](CCC(N)=O)C(=O)N[C@@H](CO)C(N)=O)C(C)C)NC(=O)[C@H](CCCCN)NC(=O)[C@H](C(C)C)NC(=O)[C@H](CC(N)=O)NC1=O, also called Ac-NL$NVK$SLVNQS-NH2) [SP1]",≥ 100
4,Ac-VERGLANVK[S5]SLV[S5]ES-NH2 (staple 10-14; SMILES CC(=O)N[C@H](C(=O)N[C@@H](CCC(=O)O)C(=O)N[C@@H](CCCNC(=N)N)C(=O)NCC(=O)N[C@@H](CC(C)C)C(=O)N[C@@H](C)C(=O)N[C@@H](CC(N)=O)C(=O)N[C@H](C(=O)N[C@@H](CCCCN)C(=O)N[C@@]1(C)CCCC=CCCC[C@@](C)(C(=O)N[C@@H](CCC(=O)O)C(=O)N[C@@H](CO)C(N)=O)NC(=O)[C@H](C(C)C)NC(=O)[C@H](CC(C)C)NC(=O)[C@H](CO)NC1=O)C(C)C)C(C)C) [SP36],≥ 100
5,Ac-LGANDELISFK[R8]EGEQEE[S5]SSN-NH2 (staple 12-19; SMILES CC[C@H](C)[C@H](NC(=O)[C@H](CC(C)C)NC(=O)[C@H](CCC(=O)O)NC(=O)[C@H](CC(=O)O)NC(=O)[C@H](CC(N)=O)NC(=O)[C@H](C)NC(=O)CNC(=O)[C@H](CC(C)C)NC(C)=O)C(=O)N[C@@H](CO)C(=O)N[C@@H](Cc1ccccc1)C(=O)N[C@@H](CCCCN)C(=O)N[C@]1(C)CCCCCCC=CCCC[C@@](C)(C(=O)N[C@@H](CO)C(=O)N[C@@H](CO)C(=O)N[C@@H](CC(N)=O)C(N)=O)NC(=O)[C@H](CCC(=O)O)NC(=O)[C@H](CCC(=O)O)NC(=O)[C@H](CCC(N)=O)NC(=O)[C@H](CCC(=O)O)NC(=O)CNC(=O)[C@H](CCC(=O)O)NC1=O) [SP21],23.9
6,Ac-LGANDELISF[S5]DEG[S5]QQQKSSN-NH2 (staple 11-15; SMILES CC[C@H](C)[C@H](NC(=O)[C@H](CC(C)C)NC(=O)[C@H](CCC(=O)O)NC(=O)[C@H](CC(=O)O)NC(=O)[C@H](CC(N)=O)NC(=O)[C@H](C)NC(=O)CNC(=O)[C@H](CC(C)C)NC(C)=O)C(=O)N[C@@H](CO)C(=O)N[C@@H](Cc1ccccc1)C(=O)N[C@@]1(C)CCCC=CCCC[C@@](C)(C(=O)N[C@@H](CCC(N)=O)C(=O)N[C@@H](CCC(N)=O)C(=O)N[C@@H](CCC(N)=O)C(=O)N[C@@H](CCCCN)C(=O)N[C@@H](CO)C(=O)N[C@@H](CO)C(=O)N[C@@H](CC(N)=O)C(N)=O)NC(=O)CNC(=O)[C@H](CCC(=O)O)NC(=O)[C@H](CC(=O)O)NC1=O) [SP46],23.7
7,Ac-LGANDQLISF[S5]DEG[S5]QEEKSSN-NH2 (staple 11-15; SMILES CC[C@H](C)[C@H](NC(=O)[C@H](CC(C)C)NC(=O)[C@H](CCC(N)=O)NC(=O)[C@H](CC(=O)O)NC(=O)[C@H](CC(N)=O)NC(=O)[C@H](C)NC(=O)CNC(=O)[C@H](CC(C)C)NC(C)=O)C(=O)N[C@@H](CO)C(=O)N[C@@H](Cc1ccccc1)C(=O)N[C@@]1(C)CCCC=CCCC[C@@](C)(C(=O)N[C@@H](CCC(N)=O)C(=O)N[C@@H](CCC(=O)O)C(=O)N[C@@H](CCC(=O)O)C(=O)N[C@@H](CCCCN)C(=O)N[C@@H](CO)C(=O)N[C@@H](CO)C(=O)N[C@@H](CC(N)=O)C(N)=O)NC(=O)CNC(=O)[C@H](CCC(=O)O)NC(=O)[C@H](CC(=O)O)NC1=O) [SP53],24.4
8,Ac-LGANDELISF[S5]DEG[S5]QEQKSSN-NH2 (staple 11-15; SMILES CC[C@H](C)[C@H](NC(=O)[C@H](CC(C)C)NC(=O)[C@H](CCC(=O)O)NC(=O)[C@H](CC(=O)O)NC(=O)[C@H](CC(N)=O)NC(=O)[C@H](C)NC(=O)CNC(=O)[C@H](CC(C)C)NC(C)=O)C(=O)N[C@@H](CO)C(=O)N[C@@H](Cc1ccccc1)C(=O)N[C@@]1(C)CCCC=CCCC[C@@](C)(C(=O)N[C@@H](CCC(N)=O)C(=O)N[C@@H](CCC(=O)O)C(=O)N[C@@H](CCC(N)=O)C(=O)N[C@@H](CCCCN)C(=O)N[C@@H](CO)C(=O)N[C@@H](CO)C(=O)N[C@@H](CC(N)=O)C(N)=O)NC(=O)CNC(=O)[C@H](CCC(=O)O)NC(=O)[C@H](CC(=O)O)NC1=O) [SP41],19.5

# These reach a lower IC50. Values come first.
row,IC50 [µM],Binder
1,3.08,Ac-LGANDELISF[S5]DQG[S5]QEEKSSN-NH2 (staple 11-15; SMILES CC[C@H](C)[C@H](NC(=O)[C@H](CC(C)C)NC(=O)[C@H](CCC(=O)O)NC(=O)[C@H](CC(=O)O)NC(=O)[C@H](CC(N)=O)NC(=O)[C@H](C)NC(=O)CNC(=O)[C@H](CC(C)C)NC(C)=O)C(=O)N[C@@H](CO)C(=O)N[C@@H](Cc1ccccc1)C(=O)N[C@@]1(C)CCCC=CCCC[C@@](C)(C(=O)N[C@@H](CCC(N)=O)C(=O)N[C@@H](CCC(=O)O)C(=O)N[C@@H](CCC(=O)O)C(=O)N[C@@H](CCCCN)C(=O)N[C@@H](CO)C(=O)N[C@@H](CO)C(=O)N[C@@H](CC(N)=O)C(N)=O)NC(=O)CNC(=O)[C@H](CCC(N)=O)NC(=O)[C@H](CC(=O)O)NC1=O) [SP39]
2,6.63,Ac-LGANDELISF[S5]DEG[S5]QQEKSSN-NH2 (staple 11-15; SMILES CC[C@H](C)[C@H](NC(=O)[C@H](CC(C)C)NC(=O)[C@H](CCC(=O)O)NC(=O)[C@H](CC(=O)O)NC(=O)[C@H](CC(N)=O)NC(=O)[C@H](C)NC(=O)CNC(=O)[C@H](CC(C)C)NC(C)=O)C(=O)N[C@@H](CO)C(=O)N[C@@H](Cc1ccccc1)C(=O)N[C@@]1(C)CCCC=CCCC[C@@](C)(C(=O)N[C@@H](CCC(N)=O)C(=O)N[C@@H](CCC(N)=O)C(=O)N[C@@H](CCC(=O)O)C(=O)N[C@@H](CCCCN)C(=O)N[C@@H](CO)C(=O)N[C@@H](CO)C(=O)N[C@@H](CC(N)=O)C(N)=O)NC(=O)CNC(=O)[C@H](CCC(=O)O)NC(=O)[C@H](CC(=O)O)NC1=O) [SP40]
3,10.9,Ac-LGANDELISF[S5]DQG[S5]QEQKSSN-NH2 (staple 11-15; SMILES CC[C@H](C)[C@H](NC(=O)[C@H](CC(C)C)NC(=O)[C@H](CCC(=O)O)NC(=O)[C@H](CC(=O)O)NC(=O)[C@H](CC(N)=O)NC(=O)[C@H](C)NC(=O)CNC(=O)[C@H](CC(C)C)NC(C)=O)C(=O)N[C@@H](CO)C(=O)N[C@@H](Cc1ccccc1)C(=O)N[C@@]1(C)CCCC=CCCC[C@@](C)(C(=O)N[C@@H](CCC(N)=O)C(=O)N[C@@H](CCC(=O)O)C(=O)N[C@@H](CCC(N)=O)C(=O)N[C@@H](CCCCN)C(=O)N[C@@H](CO)C(=O)N[C@@H](CO)C(=O)N[C@@H](CC(N)=O)C(N)=O)NC(=O)CNC(=O)[C@H](CCC(N)=O)NC(=O)[C@H](CC(=O)O)NC1=O) [SP45]
4,3.75,Ac-LGANDELISF[S5]DQG[S5]QQEKSSN-NH2 (staple 11-15; SMILES CC[C@H](C)[C@H](NC(=O)[C@H](CC(C)C)NC(=O)[C@H](CCC(=O)O)NC(=O)[C@H](CC(=O)O)NC(=O)[C@H](CC(N)=O)NC(=O)[C@H](C)NC(=O)CNC(=O)[C@H](CC(C)C)NC(C)=O)C(=O)N[C@@H](CO)C(=O)N[C@@H](Cc1ccccc1)C(=O)N[C@@]1(C)CCCC=CCCC[C@@](C)(C(=O)N[C@@H](CCC(N)=O)C(=O)N[C@@H](CCC(N)=O)C(=O)N[C@@H](CCC(=O)O)C(=O)N[C@@H](CCCCN)C(=O)N[C@@H](CO)C(=O)N[C@@H](CO)C(=O)N[C@@H](CC(N)=O)C(N)=O)NC(=O)CNC(=O)[C@H](CCC(N)=O)NC(=O)[C@H](CC(=O)O)NC1=O) [SP44]
